# Reference: the supplement of paper PMC10899765
# Legend:
# Conditions in all cases: 20 nM; 72 h
# [1] = tested on: MCF10A; assay: one-nucleolus phenotype percent effect (relative to siNT 0% and siNOL11 100%); higher = more cells with one nucleolus (ribosome biogenesis inhibition)
# Description: (§1)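 After 72 h, cells were fixed and stained with Hoechst and anti-fibrillarin, and nucleoli per nucleus were counted with CellProfiler. Values are plate-adjusted percent effect for the one-nucleolus and 5+ nucleoli phenotypes, normalised to siNT (0%) and to the positive controls siNOL11 or siKIF11 (100%), as the mean of biological triplicates. Percent viability is the nuclei count relative to siNT.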
# [2] = tested on: MCF10A; assay: 5+ nucleoli phenotype percent effect (relative to siNT 0% and siKIF11 100%); higher = more cells with five or more nucleoli
# Description: as §1
# [3] = tested on: MCF10A; assay: percent viability (nuclei count relative to siNT); higher = more viable cells
# Description: as §1
sequence,measurement,setting,value
AUAGGACUCAUAUAGUGCCAG [hsa-miR-3117-3p],one-nucleolus phenotype percent effect,[1],-13.2%
same,5+ nucleoli phenotype percent effect,[2],33%
same,percent viability,[3],35.4%
CAGGCCAUAUUGUGCUGCCUCA [hsa-miR-15a-3p],one-nucleolus phenotype percent effect,[1],23%
same,5+ nucleoli phenotype percent effect,[2],-27.1%
same,percent viability,[3],29.6%
UAAUGAUUCAUCAGACUCAGAU [hsa-miR-580-5p],one-nucleolus phenotype percent effect,[1],14%
same,5+ nucleoli phenotype percent effect,[2],-17.8%
same,percent viability,[3],32.9%
UUCCAGCCCUUCUAAUGGUAGG [hsa-miR-6512-3p],one-nucleolus phenotype percent effect,[1],39.8%
same,5+ nucleoli phenotype percent effect,[2],-33.4%
same,percent viability,[3],33.8%
CCUGGCAUAUUUGGUAUAACUU [hsa-miR-4720-5p],one-nucleolus phenotype percent effect,[1],1.6%
same,5+ nucleoli phenotype percent effect,[2],46.4%
same,percent viability,[3],31.3%
GUGGGGGAGAGGCUGUC [hsa-miR-1275],one-nucleolus phenotype percent effect,[1],43%
same,5+ nucleoli phenotype percent effect,[2],-28.2%
same,percent viability,[3],20.5%
UGGCCCAACCUAUUCAGUUAGU [hsa-miR-3136-3p],one-nucleolus phenotype percent effect,[1],-25.2%
same,5+ nucleoli phenotype percent effect,[2],34.8%
same,percent viability,[3],140%
UUAGGCCGCAGAUCUGGGUGA [hsa-miR-1295a],one-nucleolus phenotype percent effect,[1],8.73%
same,5+ nucleoli phenotype percent effect,[2],-12.5%
same,percent viability,[3],33.2%
UAAUCUCAGCUGGCAACUGUGA [hsa-miR-216a-5p],one-nucleolus phenotype percent effect,[1],6.23%
same,5+ nucleoli phenotype percent effect,[2],-8.01%
same,percent viability,[3],67.7%
ACUGGACUUAGGGUCAGAAGGC [hsa-miR-422a],one-nucleolus phenotype percent effect,[1],12.5%
same,5+ nucleoli phenotype percent effect,[2],-13.7%
same,percent viability,[3],37.8%
CCUCUCCUCCCUGUGCCCCAG [hsa-miR-6845-3p],one-nucleolus phenotype percent effect,[1],-13.8%
same,5+ nucleoli phenotype percent effect,[2],26.2%
same,percent viability,[3],60.1%
CACUGUGUCCUUUCUGCGUAG [hsa-miR-892a],one-nucleolus phenotype percent effect,[1],31.9%
same,5+ nucleoli phenotype percent effect,[2],-27.3%
same,percent viability,[3],57.7%
UGAGCUGCUGUACCAAAAU [hsa-miR-558],one-nucleolus phenotype percent effect,[1],6.73%
same,5+ nucleoli phenotype percent effect,[2],0.086%
same,percent viability,[3],65.1%
UUGUGCUUGAUCUAACCAUGU [hsa-miR-218-5p],one-nucleolus phenotype percent effect,[1],-8.63%
same,5+ nucleoli phenotype percent effect,[2],35.8%
same,percent viability,[3],151%
UCUUUGGUUAUCUAGCUGUAUGA [hsa-miR-9-5p],one-nucleolus phenotype percent effect,[1],20.5%
same,5+ nucleoli phenotype percent effect,[2],-15.1%
same,percent viability,[3],54.9%
CUGUACAGGCCACUGCCUUGC [hsa-let-7g-3p],one-nucleolus phenotype percent effect,[1],-2.69%
same,5+ nucleoli phenotype percent effect,[2],-28.3%
same,percent viability,[3],55.1%
UGCACAUGGCAACCUAGCUCCCA [hsa-miR-5589-3p],one-nucleolus phenotype percent effect,[1],6.29%
same,5+ nucleoli phenotype percent effect,[2],-1.16%
same,percent viability,[3],45.2%
UCCAUGUUUCCUUCCCCCUUCU [hsa-miR-4716-5p],one-nucleolus phenotype percent effect,[1],45.4%
same,5+ nucleoli phenotype percent effect,[2],-43.5%
same,percent viability,[3],28.8%
AAGUAGUUGGUUUGUAUGAGAUGGUU [hsa-miR-1244],one-nucleolus phenotype percent effect,[1],12.3%
same,5+ nucleoli phenotype percent effect,[2],-0.297%
same,percent viability,[3],44.6%
UUCACAGGGAGGUGUCAU [hsa-miR-513a-5p],one-nucleolus phenotype percent effect,[1],24.8%
same,5+ nucleoli phenotype percent effect,[2],-25.5%
same,percent viability,[3],68%
UAUGGGGCUUCUGUAGAGAUUUC [hsa-miR-3675-5p],one-nucleolus phenotype percent effect,[1],22.6%
same,5+ nucleoli phenotype percent effect,[2],-9.76%
same,percent viability,[3],37.2%
AGGAGCUAGCCAGGCAUAUGCA [hsa-miR-4633-3p],one-nucleolus phenotype percent effect,[1],37.9%
same,5+ nucleoli phenotype percent effect,[2],-40.1%
same,percent viability,[3],15.3%
CUGAACUAGAGAUUGGGCCCA [hsa-miR-7158-3p],one-nucleolus phenotype percent effect,[1],16%
same,5+ nucleoli phenotype percent effect,[2],-10.2%
same,percent viability,[3],32.7%
AGGAAUGUUCCUUCUUUGCC [hsa-miR-613],one-nucleolus phenotype percent effect,[1],36.5%
same,5+ nucleoli phenotype percent effect,[2],-37.9%
same,percent viability,[3],44.4%
CUGGGGUUCUGAGACAGACAGU [hsa-miR-3170],one-nucleolus phenotype percent effect,[1],40.9%
same,5+ nucleoli phenotype percent effect,[2],-46.2%
same,percent viability,[3],9.55%
UGUGUCCGGGAAGUGGAGGAGG [hsa-miR-4669],one-nucleolus phenotype percent effect,[1],2.82%
same,5+ nucleoli phenotype percent effect,[2],-24.1%
same,percent viability,[3],74.6%
AUCAGGGCUUGUGGAAUGGGAAG [hsa-miR-3127-5p],one-nucleolus phenotype percent effect,[1],49.5%
same,5+ nucleoli phenotype percent effect,[2],-23.4%
same,percent viability,[3],18.4%
AGGGAGAAAGCUAGAAGCUGAAG [hsa-miR-6878-5p],one-nucleolus phenotype percent effect,[1],-18.3%
same,5+ nucleoli phenotype percent effect,[2],44.5%
same,percent viability,[3],72.6%
ACUUGGGCACUGAAACAAUGUCC [hsa-miR-635],one-nucleolus phenotype percent effect,[1],-11.4%
same,5+ nucleoli phenotype percent effect,[2],32.7%
same,percent viability,[3],65.6%
CUCAGUGACUCAUGUGC [hsa-miR-4276],one-nucleolus phenotype percent effect,[1],17.5%
same,5+ nucleoli phenotype percent effect,[2],-21.3%
same,percent viability,[3],72.6%
AGGGCUUAGCUGCUUGUGAGCA [hsa-miR-27a-5p],one-nucleolus phenotype percent effect,[1],23.8%
same,5+ nucleoli phenotype percent effect,[2],-11.3%
same,percent viability,[3],19.8%
UGAGGGAGGAGGUUGGGUA [hsa-miR-6133],one-nucleolus phenotype percent effect,[1],1.81%
same,5+ nucleoli phenotype percent effect,[2],-0.793%
same,percent viability,[3],17.2%
CUUCUGAUCAAGAUUUGUGGUG [hsa-miR-4762-3p],one-nucleolus phenotype percent effect,[1],18.9%
same,5+ nucleoli phenotype percent effect,[2],-38.7%
same,percent viability,[3],30.5%
CUCACUGAACAAUGAAUGCAA [hsa-miR-181b-3p],one-nucleolus phenotype percent effect,[1],-19.6%
same,5+ nucleoli phenotype percent effect,[2],22%
same,percent viability,[3],61.5%
GUGAGGACUCGGGAGGUGG [hsa-miR-1224-5p],one-nucleolus phenotype percent effect,[1],16.9%
same,5+ nucleoli phenotype percent effect,[2],-12.6%
same,percent viability,[3],53.3%
AGGGCAUAGGAGAGGGUUGAUAU [hsa-miR-3945],one-nucleolus phenotype percent effect,[1],-1.06%
same,5+ nucleoli phenotype percent effect,[2],34.8%
same,percent viability,[3],27.2%
UAAGUGCUUCCAUGUUUUAGUAG [hsa-miR-302b-3p],one-nucleolus phenotype percent effect,[1],-12.2%
same,5+ nucleoli phenotype percent effect,[2],33.7%
same,percent viability,[3],74.9%
UUGUUCUUUGGUCUUUCAGCCA [hsa-miR-4677-5p],one-nucleolus phenotype percent effect,[1],20.3%
same,5+ nucleoli phenotype percent effect,[2],-26.7%
same,percent viability,[3],42.5%
ACGCCCUUCCCCCCCUUCUUCA [hsa-miR-1249],one-nucleolus phenotype percent effect,[1],-13.3%
same,5+ nucleoli phenotype percent effect,[2],29.3%
same,percent viability,[3],85.3%
CCCAGGGCUUGGAGUGGGGCAAGGUU [hsa-miR-4685-5p],one-nucleolus phenotype percent effect,[1],9.96%
same,5+ nucleoli phenotype percent effect,[2],15%
same,percent viability,[3],69.2%
UGUGACAGAUUGAUAACUGAAA [hsa-miR-542-3p],one-nucleolus phenotype percent effect,[1],65.1%
same,5+ nucleoli phenotype percent effect,[2],-17.1%
same,percent viability,[3],39.5%
CCAGUGACUGAGCUGGAGCCA [hsa-miR-5190],one-nucleolus phenotype percent effect,[1],29.3%
same,5+ nucleoli phenotype percent effect,[2],-11.4%
same,percent viability,[3],31.7%
CAAAACGUGAGGCGCUGCUAU [hsa-miR-424-3p],one-nucleolus phenotype percent effect,[1],-5.82%
same,5+ nucleoli phenotype percent effect,[2],-16.6%
same,percent viability,[3],74.1%
AUUAAGGACAUUUGUGAUUGAU [hsa-miR-4477b],one-nucleolus phenotype percent effect,[1],-4.92%
same,5+ nucleoli phenotype percent effect,[2],7%
same,percent viability,[3],37.8%
UGGGUGGAAGAAGGUCUGGUU [hsa-miR-6745],one-nucleolus phenotype percent effect,[1],17.1%
same,5+ nucleoli phenotype percent effect,[2],-9.03%
same,percent viability,[3],6.73%
